Here are results for three proteins from article PMC9841417 (Nucleic Acids Research, 2023).

B1: Full-length Lhr H1199A-R1206A-R1286A (natural protein, Mycobacterium smegmatis, UniProt A0QT91 1-1507, looked up)
chain: MTTNGADPLGRFSALTREWFTTAFAAPTPAQADAWSAISEGNNTLVIAPTGSGKTLAAFLWAIDRLADPAREPSQGTQVLYVSPLKALAVDVERNLRTPLTGITRVAERHGLPAPSITVGVRSGDTPPNQRRAMIANPPDVLITTPESLFLMLTSAARETLTSVRTVIVDEVHAVAATKRGAHLALSLERLDQLLDTPAQRIGLSATVRPPEEVARFLSGQAPTTIVCPPAAKTFDLSVQVPVPDMANLDNNSIWPDVEERIVDLVEAHNSSIVFANSRRLAERLTSRLNEIHAERSGIELPAGPNPEVGGGAPAHLMGSGQANGAPPLLARAHHGSVSKEQRAQVEDDLKSGRLRAVVATSSLELGIDMGAVDLVIQVEAPPSVASGLQRVGRAGHQVGEISQGVLFPKHRTDLIGCAVTVQRMQTGDIETLRVPANPLDVLAQHTVAVAALEPVDADAWFDAVRRSAPFATLPRSAFEATLDLLSGKYPSTEFAELRPRLVYDRDTGTLTARPGAQRLAVTSGGAIPDRGMFTVYLASETEKPSRVGELDEEMVYESRPGDVISLGATSWRITEITHDRVLVIPAPGQPARLPFWRGDSVGRPAELGAAVGAFTGELASLDRKAFDKRCQKMGFAGYATDNLHQLLREQREATGVVPSDTTFVVERFRDELGDWRVILHSPYGLRVHGPLALAVGRRLRERYGIDEKPTASDDGIIVRLPDSGDTPPGADLFVFDADEIEPIVTAEVGGSALFASRFRECAARALLLPRRHPGKRSPLWHQRQRAAQLLDIARKYPDFPIVLEAVRECLQDVYDVPALIELMHKIAQRRLRIVEVETATPSPFAASLLFGYVGAFMYEGDSPLAERRAAALALDTVLLSELLGRVELRELLDPAVVASTSAQLQHLTPERAARDAEGVADLLRLLGPLTEADIAQRCTADNIGAWLDGLHAAKRALPVTYAGQTWWAAVEDIGLLRDGIGVPVPVGVPAAFTESASDPLGDLIGRYARTRGPFTTEQTAARFGLGVRVASDVLSRMAVDGRLIRGEFAADLSGEQWCDAQVLKILRRRSLAALRAQVEPVSTDAYARFLPSWQHVGSTNTTGIDGLATVIEQLAGVPIPASAVESLVFPQRVRDYQPAMLDELLASGEVMWSGAGQIGNGDGWVAFHLADTAPLTLTHGAEIEFTDTHRVILETLGAGGAYFFAQLTDGTVEGTAGQELKQALWELIWAGWVTGDTFAPVRAVLSGPRRSGAPAHRQRQRPPRLSRYSVAHAQTRGTDPTVSGAWSALPAAEPDSTVRAHFQAELLLGRHGVLTKGAVGAEGVPGGFATLYKVLSTFEDAGRCQRGYFVESLGGAQFAVASTVDRLRSYLDNVDPERPEYHAVVLAATDPANPYGAALGWPTDSEAHRPGRKAGALVALVDGRLVWFLERGGRSLLSFGADADAQRAAAGALTDLVSAGRIPSLLVERINGVAVLDPDVDAERAVVQDALLGAGLSRTPRGLRLR
B2: Lhr-CTD (aa 863-1507) R915A-T1100A-D1366A (domain or fragment, Mycobacterium smegmatis, UniProt A0QT91 863-1507, looked up)
chain: SPLAERRAAALALDTVLLSELLGRVELRELLDPAVVASTSAQLQHLTPERAAADAEGVADLLRLLGPLTEADIAQRCTADNIGAWLDGLHAAKRALPVTYAGQTWWAAVEDIGLLRDGIGVPVPVGVPAAFTESASDPLGDLIGRYARTRGPFTTEQTAARFGLGVRVASDVLSRMAVDGRLIRGEFAADLSGEQWCDAQVLKILRRRSLAALRAQVEPVSTDAYARFLPSWQHVGSANTTGIDGLATVIEQLAGVPIPASAVESLVFPQRVRDYQPAMLDELLASGEVMWSGAGQIGNGDGWVAFHLADTAPLTLTHGAEIEFTDTHRVILETLGHGGAYFFRQLTDGTVEGTAGQELKQALWELIWAGWVTGDTFAPVRAVLSGPRRSGAPAHRQRQRPPRLSRYSVAHAQTRGTDPTVSGRWSALPAAEPDSTVRAHFQAELLLGRHGVLTKGAVGAEGVPGGFATLYKVLSTFEDAGRCQRGYFVESLGGAQFAVASTVARLRSYLDNVDPERPEYHAVVLAATDPANPYGAALGWPTDSEAHRPGRKAGALVALVDGRLVWFLERGGRSLLSFGADADAQRAAAGALTDLVSAGRIPSLLVERINGVAVLDPDVDAERAVVQDALLGAGLSRTPRGLRLR
B3: Lhr-CTD (aa 863-1507) H1199A-R1206A-R1286A (domain or fragment, Mycobacterium smegmatis, UniProt A0QT91 863-1507, looked up)
chain: SPLAERRAAALALDTVLLSELLGRVELRELLDPAVVASTSAQLQHLTPERAARDAEGVADLLRLLGPLTEADIAQRCTADNIGAWLDGLHAAKRALPVTYAGQTWWAAVEDIGLLRDGIGVPVPVGVPAAFTESASDPLGDLIGRYARTRGPFTTEQTAARFGLGVRVASDVLSRMAVDGRLIRGEFAADLSGEQWCDAQVLKILRRRSLAALRAQVEPVSTDAYARFLPSWQHVGSTNTTGIDGLATVIEQLAGVPIPASAVESLVFPQRVRDYQPAMLDELLASGEVMWSGAGQIGNGDGWVAFHLADTAPLTLTHGAEIEFTDTHRVILETLGAGGAYFFAQLTDGTVEGTAGQELKQALWELIWAGWVTGDTFAPVRAVLSGPRRSGAPAHRQRQRPPRLSRYSVAHAQTRGTDPTVSGAWSALPAAEPDSTVRAHFQAELLLGRHGVLTKGAVGAEGVPGGFATLYKVLSTFEDAGRCQRGYFVESLGGAQFAVASTVDRLRSYLDNVDPERPEYHAVVLAATDPANPYGAALGWPTDSEAHRPGRKAGALVALVDGRLVWFLERGGRSLLSFGADADAQRAAAGALTDLVSAGRIPSLLVERINGVAVLDPDVDAERAVVQDALLGAGLSRTPRGLRLR

This data set deals with the molecule itself. Put plainly: SEC.
For B1, the “stoichiometry N” value came out at 2.

Take B2: the “stoichiometry N” value turned out to be 4.

On to B3, for which the “stoichiometry N” value stood at 2.
